Laboratory results published in article PMC3207847, “Characterization of a Novel Type of HIV-1 Particle Assembly Inhibitor Using a Quantitative Luciferase-Vpr Packaging-Based Assay” (PLoS ONE, 2011).

Target: HIV-1 Gag precursor Pr55Gag, full-length wild type (HIV-1) (UniProt P03348)
Assay: co-sedimentation

Row | Substance | copies of Gag per LucVpr molecule in VLP (copies of Gag per LucVpr molecule) | copies of Gag per Vpr molecule in VLP (copies of Gag per Vpr molecule)
1 | luciferase-Vpr fusion protein (LucVpr) (from UniProt P05928 1-96) (natural protein) | 4.92 | –
2 | oligohistidine-tagged HIV-1 Vpr protein (from UniProt P05928 1-96) (natural protein) | – | 5.6
